Earlier results as cited in PMC12298957.

Target: FGFR2 (Homo sapiens) (UniProt P21802)
Sequence of UniProt P21802 (P21802 22-377): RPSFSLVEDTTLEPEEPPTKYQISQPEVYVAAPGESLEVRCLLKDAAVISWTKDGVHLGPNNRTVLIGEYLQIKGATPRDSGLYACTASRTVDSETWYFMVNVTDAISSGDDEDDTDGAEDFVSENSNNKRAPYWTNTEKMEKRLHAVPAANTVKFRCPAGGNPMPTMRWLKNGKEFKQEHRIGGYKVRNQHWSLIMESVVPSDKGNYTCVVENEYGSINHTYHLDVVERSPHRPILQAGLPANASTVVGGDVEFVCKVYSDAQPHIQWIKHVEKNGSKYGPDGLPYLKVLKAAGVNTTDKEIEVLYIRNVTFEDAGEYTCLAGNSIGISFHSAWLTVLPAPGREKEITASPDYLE

- Kd: 1400 nM
Substance: WRARVPL peptide
